# Reference: patent US11229713B2, “Methods and compositions for 18F-radiolabeling of biologics” (BRISTOL-MYERS SQUIBB COMPANY, priority 2014, dated 2022)
# Columns and labels:
# [1] = Stability of reconstituted [18F]-FPPEGA in 1×PBS buffer; format: physicochemical; conditions: 100% 1×PBS buffer, 37° C.
# Procedure: An aqueous [^18F]-Fluoride solution (2.0 ml, 33.3 GBq/900 mCi) was purchased from P.E.T. Net® Pharmaceuticals in West Point Pa. and directly transferred to a Sep-Pak light QMA [The Sep-Pak light QMA cartridge was pre-conditioned sequentially with 5 ml of 0.5 M potassium bicarbonate, 5 ml of deionized water, and 5 ml of MeCN before use.] Upon completion of this transfer, the aqueous [^18F] fluoride was released from the QMA Sep-Pak by the sequential addition of potassium carbonate (15 mg/ml; 0.1 ml) followed by a mixture of potassium carbonate (30 mg/ml, 0.1 ml), 4,7,13,16,21,24-hexaoxa-1,10-diazabicyclo[8.8.8]hexacosane (15 mg, 0.04 mmol) and 1.2 ml of MeCN. The solvent was evaporated under a gentle stream of nitrogen at 90° C. and vacuum. Azeotropic drying was repeated twice with 1 ml portions of acetonitrile to generate the anhydrous K.2.2.2/K[^18F]F complex. […] The entire contents of the crude reaction mixture was then transferred, loaded and purified using reverse phase HPLC and the following conditions: HPLC Column: Luna C18 250×10 Solvent A: 0.1% TFA in DI water; solvent B: 0.1% TFA in acetonitrile at a flow rate of 4.6 ml/minute using isocratic method 32% B while the UV was monitored at 280 nm. […]
# PD-L1 [2] = target: T1, PD-L1 (Homo sapiens, UniProt Q9NZQ7); assay: microPET imaging of mice bearing bilateral PD-L1(+) L2987 and PD-L1(−) HT-29 xenografts; format: in vivo; set-up: introducing 1×10^6 PD-L1(+) L2987 human lung carcinoma cells; endogenous in cells; host or cells: L2987 human lung carcinoma xenografts grown subcutaneously in mice; conditions: co-injected with 3 mg/kg unlabeled A02 Adnectin, 1 hour 50 minutes - 2 h post injection
# T1 sequence (Q9NZQ7 19-290): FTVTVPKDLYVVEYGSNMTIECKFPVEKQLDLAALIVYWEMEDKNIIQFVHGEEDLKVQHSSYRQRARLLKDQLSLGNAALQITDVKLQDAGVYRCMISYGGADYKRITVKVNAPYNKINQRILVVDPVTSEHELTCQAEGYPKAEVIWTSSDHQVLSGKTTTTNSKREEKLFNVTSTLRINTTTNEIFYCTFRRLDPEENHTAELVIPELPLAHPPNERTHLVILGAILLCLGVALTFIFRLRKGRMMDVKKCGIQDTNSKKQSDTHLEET
# From the text: Mice bearing bilateral xenograft tumors were produced by introducing 1×10^6 PD-L1(+) L2987 human lung carcinoma cells and 1.5×10^6 PD-L1(−) HT-29 human colon carcinoma cells subcutaneously on opposite sides of the mouse. Once tumors reached approximately 300 mm^3 (approximately 2-3 weeks after cell implantation) animals were selected for imaging. For imaging, animals were placed under anesthesia with 2% isoflurane and tail vein catheters were installed. Mice were then placed into a custom animal holder with capacity for 4 animals, where they remained under anesthesia for the duration of the study. The animal holder was transferred to the microPET® F120™ scanner (Siemens Preclinical Solutions, Knoxville, Tenn.). […]
# Following the transmission scan, radiotracer solutions were administered via the previously installed tail vein catheters and a 2 hour emission image was acquired. […] Exact injected doses were calculated by taking direct measurement of the formulated dose and subtracting the radioactivity remaining in the syringe and the tail vein catheter.
# In the final images, regions of interest (ROIs) were drawn around the tumor boundary using ASIPro software (Siemens Preclinical Solutions). Time-activity curves were calculated for each ROI to yield a quantitative view of radiotracer within the tumor volume over the course of the 2 hour emission image. […]
# PD-L1 [3] = target: T1, PD-L1; assay: Ex vivo tissue biodistribution by gamma counter in xenograft-bearing mice; set-up: introducing 1×10^6 PD-L1(+) L2987 human lung carcinoma cells; endogenous in cells; host or cells: L2987 human lung carcinoma xenografts grown subcutaneously in mice
# Procedure: For some studies, animals were sacrificed via cervical dislocation immediately following imaging. Necropsy was then performed on the animals, and individual tissues were collected (blood, heart, lung, liver, spleen, kidney, muscle, stomach, bone, L2987 tumor, and HT-29 tumor) into pre-weighed tubes. All tissues were then weighed again to determine the weight of each tissue. The radioactivity in each tissue was then directly measured ex vivo using a Perkin-Elmer Wizard3 gamma counter. For all tissues, measured values in counts per minute (CPM) were normalized to the injected radioactive dose for the individual animals and corrected for radioactive decay.
# PD-L1 [4] = conditions: cynomolgus monkeys
# Procedure: Cynomolgus male monkeys with a previously installed vascular access port (VAP) were anesthetized with 0.02 mg/kg atropine, 5 mg/kg Telazol and 0.01 mg/kg buprenorphine I.M. (all drawn into a single syringe). An i.v. catheter is then placed in the cephalic vessel for fluid administration during the imaging procedure to maintain hydration. […] Anesthesia was maintained with isoflurane and oxygen and I.V. fluids (LRS) were administered at a rate of 6 ml/kg/hr during the imaging procedure. As the axial field of view of the microPET® F220™ instrument is only 7.6 cm, images over 5 distinct bed positions were acquired to create a composite image of the animals from just above the heart through approximately the pelvis.
# For each field of view, a 10 minute transmission image was first acquired using a ^57Co point source for the purpose of attenuation correction of the final PET images. […] Once images were acquired at each position (1 through 5), the imaging bed was moved back to bed position 1 and the process was repeated. Using this procedure, a total of 5 distinct images were acquired for each bed position over the duration of the imaging study.
# Individual images were reconstructed using a filtered back projection (FBP) algorithm with attenuation correction using the collected transmission images and corrected for radioisotope decay.
# PD-L1 [5] = target: T1, PD-L1; assay: In vitro differentiation of PD-L1-positive from PD-L1-negative cells (cell-associated radioactivity, gamma counter); format: binding; set-up: PD-L1-positive L2987 human lung carcinoma cells or PD-L1-negative HT-29 human colorectal adenocarcinoma cells; endogenous in cells; host or cells: L2987 human lung carcinoma cells (HT-29 as PD-L1-negative control); conditions: 1 hour on ice
# Procedure: Portions of this solution were supplemented with either cold (unlabeled) […] or cold (unlabeled) […] (control) to a final concentration of 450 nM. […] After the incubation period, cell samples were centrifuged at 200×g and the supernatant was discarded. Cell pellets were resuspended in 1 mL PBS+0.5% BSA and the wash procedure repeated for a total of 3 washes. Following the final wash, cells were again centrifuged at 200×g and the supernatant was discarded. The radioactivity of the remaining cell pellets was then measured by gamma counter.
molecule,measurement,setting,value
[N-]=[N+]=NCCOCCOCCOCCOc1cccnc1[18F] [[^18F]-3-(2-(2-(2-(2-azidoethoxy)ethoxy)ethoxy)ethoxy)-2-fluoropyridine],stable in this media,[1],over 1 hour
"^18F-radiolabeled A02: ^18F-radiolabeled PD-L1 Adnectin A02 (SEQ ID NO: 2) produced as described in Example 9 (conjugate, PEG4-DBCO linker, 18F-FPPEGA label; Synthetic 18F-radiolabeled PD-L1 Adnectin, A02) EVVAATPTSLLISWSYDGPIDRYYRITYGETGGNSPVQEFTVPPDQKTATISGLKPGVDYTITVYAVRLEEAHYNREFPISINYRTPC","radiotracer uptake in PD-L1(+) L2987 xenografts relative to PD-L1(−) HT-29 xenografts, blocked",PD-L1 [2],1.04 ×
same,tissue with higher uptake than the PD-L1(+) tumor,PD-L1 [3]; ex vivo gamma counter,kidney
same,"uptake in PD-L1(+) L2987 xenografts compared to PD-L1(−) HT-29 xenografts, ex vivo","PD-L1 [3]; necropsy immediately after imaging, gamma counter",clear differential uptake
"^18F-radiolabeled E01-4PEG-DBCO: E01 anti-PD-L1 Adnectin (SEQ ID NO: 1) linked via maleimide-PEG4-DBCO to [18F]-FPPEGA by click reaction (conjugate, maleimide-PEG4-DBCO, 18F-FPPEGA label; Synthetic FBS protein, E01 Adnectin containing the C-terminal amino acids PC) GVSDVPRDLEVVAATPTSLLISWRAQLSPSFYYRITYGETGGNSPVQEFTVPNDVMTATISGLKPGVDYTITVYAVTTHGVYFYSPISINYRTPC",notable radiotracer accumulation (tissues),PD-L1 [4]; PET,"mainly in the kidneys, spleen, and bladder"
same,background levels / background accumulation in PET images,PD-L1 [4]; approx. 1.5 mCi (approx. 0.015 mg/kg) via VAP,very low
same,cell associated radioactivity in PD-L1-positive L2987 cells relative to PD-L1-negative HT-29 cells,PD-L1 [5]; 300 nCi/200 μL tracer,44.6 ×
"E01 Adnectin: FBS protein, anti-PD-L1 Adnectin, SEQ ID NO: 1, cold (unlabeled) (protein, Synthetic FBS protein, E01 Adnectin containing the C-terminal amino acids PC) GVSDVPRDLEVVAATPTSLLISWRAQLSPSFYYRITYGETGGNSPVQEFTVPNDVMTATISGLKPGVDYTITVYAVTTHGVYFYSPISINYRTPC",reduction in cell-associated ^18F-radiolabeled E01-4PEG-DBCO on co-incubation with cold adnectin,PD-L1 [5]; 450 nM cold (unlabeled) adnectin,99.6%
